The assay deals with T1, rat CRFBP C-terminally fused with a His6 sequence (rat, UniProt P24388 25-322).
T1 chain: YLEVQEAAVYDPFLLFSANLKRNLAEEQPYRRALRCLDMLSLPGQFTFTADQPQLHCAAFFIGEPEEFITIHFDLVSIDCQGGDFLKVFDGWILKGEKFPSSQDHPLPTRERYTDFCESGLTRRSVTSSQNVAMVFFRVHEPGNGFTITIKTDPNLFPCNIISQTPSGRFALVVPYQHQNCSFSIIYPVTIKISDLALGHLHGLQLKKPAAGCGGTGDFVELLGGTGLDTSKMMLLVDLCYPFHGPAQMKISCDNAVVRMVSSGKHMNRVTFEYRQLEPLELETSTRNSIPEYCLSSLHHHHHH
Description: competition binding.

The results in this text go back to US20080221021A1 (published 2008).

Where no end group is shown, it is not given here.

The molecule SEEPPISLDLTFHLLREVLEMARAEQLAQQAHSNRKLMEII (not fully specified) [human/rat corticotropin-releasing factor] returned an IC50 of 0.54 nM.
